Source: patent publication US20140274782A1, “AFFINITY REAGENTS AND METHODS FOR DETECTION, PURIFICATION, AND PROTEOMIC ANALYSIS OF METHYLATED PROTEINS” (The Board of Trustees of the Leland Stanford Junior …, priority 2013, published 2014)

T1: G9a and GLP (Homo sapiens, UniProt Q96KQ7+Q9H9B1)
T1 sequence (Q96KQ7 2-1210 limits assumed): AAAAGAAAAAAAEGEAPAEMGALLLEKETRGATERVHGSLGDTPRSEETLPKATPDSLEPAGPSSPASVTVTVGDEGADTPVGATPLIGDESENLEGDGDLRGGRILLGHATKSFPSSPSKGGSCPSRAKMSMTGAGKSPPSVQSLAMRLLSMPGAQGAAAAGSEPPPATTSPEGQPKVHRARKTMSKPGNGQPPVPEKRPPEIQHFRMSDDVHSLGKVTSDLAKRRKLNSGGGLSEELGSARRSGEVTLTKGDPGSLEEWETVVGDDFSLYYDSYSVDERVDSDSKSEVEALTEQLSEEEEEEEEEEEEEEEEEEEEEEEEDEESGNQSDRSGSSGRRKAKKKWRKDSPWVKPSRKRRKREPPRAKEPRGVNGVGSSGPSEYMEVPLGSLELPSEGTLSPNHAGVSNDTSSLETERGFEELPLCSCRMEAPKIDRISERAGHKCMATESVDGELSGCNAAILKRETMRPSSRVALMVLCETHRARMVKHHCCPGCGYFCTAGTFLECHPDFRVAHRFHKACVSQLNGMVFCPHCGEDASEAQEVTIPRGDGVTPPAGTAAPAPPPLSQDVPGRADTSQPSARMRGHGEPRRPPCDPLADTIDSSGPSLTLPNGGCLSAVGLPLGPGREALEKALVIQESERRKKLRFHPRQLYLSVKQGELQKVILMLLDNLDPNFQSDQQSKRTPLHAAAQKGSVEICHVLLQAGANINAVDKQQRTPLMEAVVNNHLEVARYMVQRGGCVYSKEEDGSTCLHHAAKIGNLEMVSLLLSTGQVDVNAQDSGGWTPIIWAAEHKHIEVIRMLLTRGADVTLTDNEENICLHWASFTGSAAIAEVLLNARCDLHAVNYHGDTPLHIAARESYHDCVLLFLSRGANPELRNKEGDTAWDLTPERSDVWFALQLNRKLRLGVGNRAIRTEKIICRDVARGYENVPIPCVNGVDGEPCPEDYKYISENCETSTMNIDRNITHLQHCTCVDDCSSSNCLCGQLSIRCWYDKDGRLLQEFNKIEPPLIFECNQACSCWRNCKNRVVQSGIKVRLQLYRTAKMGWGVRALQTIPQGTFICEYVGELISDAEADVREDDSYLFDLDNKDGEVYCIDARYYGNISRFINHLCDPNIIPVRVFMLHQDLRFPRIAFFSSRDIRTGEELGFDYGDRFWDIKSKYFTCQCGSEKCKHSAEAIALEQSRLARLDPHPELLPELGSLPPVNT
T1 sequence (Q9H9B1 2-1298 limits assumed): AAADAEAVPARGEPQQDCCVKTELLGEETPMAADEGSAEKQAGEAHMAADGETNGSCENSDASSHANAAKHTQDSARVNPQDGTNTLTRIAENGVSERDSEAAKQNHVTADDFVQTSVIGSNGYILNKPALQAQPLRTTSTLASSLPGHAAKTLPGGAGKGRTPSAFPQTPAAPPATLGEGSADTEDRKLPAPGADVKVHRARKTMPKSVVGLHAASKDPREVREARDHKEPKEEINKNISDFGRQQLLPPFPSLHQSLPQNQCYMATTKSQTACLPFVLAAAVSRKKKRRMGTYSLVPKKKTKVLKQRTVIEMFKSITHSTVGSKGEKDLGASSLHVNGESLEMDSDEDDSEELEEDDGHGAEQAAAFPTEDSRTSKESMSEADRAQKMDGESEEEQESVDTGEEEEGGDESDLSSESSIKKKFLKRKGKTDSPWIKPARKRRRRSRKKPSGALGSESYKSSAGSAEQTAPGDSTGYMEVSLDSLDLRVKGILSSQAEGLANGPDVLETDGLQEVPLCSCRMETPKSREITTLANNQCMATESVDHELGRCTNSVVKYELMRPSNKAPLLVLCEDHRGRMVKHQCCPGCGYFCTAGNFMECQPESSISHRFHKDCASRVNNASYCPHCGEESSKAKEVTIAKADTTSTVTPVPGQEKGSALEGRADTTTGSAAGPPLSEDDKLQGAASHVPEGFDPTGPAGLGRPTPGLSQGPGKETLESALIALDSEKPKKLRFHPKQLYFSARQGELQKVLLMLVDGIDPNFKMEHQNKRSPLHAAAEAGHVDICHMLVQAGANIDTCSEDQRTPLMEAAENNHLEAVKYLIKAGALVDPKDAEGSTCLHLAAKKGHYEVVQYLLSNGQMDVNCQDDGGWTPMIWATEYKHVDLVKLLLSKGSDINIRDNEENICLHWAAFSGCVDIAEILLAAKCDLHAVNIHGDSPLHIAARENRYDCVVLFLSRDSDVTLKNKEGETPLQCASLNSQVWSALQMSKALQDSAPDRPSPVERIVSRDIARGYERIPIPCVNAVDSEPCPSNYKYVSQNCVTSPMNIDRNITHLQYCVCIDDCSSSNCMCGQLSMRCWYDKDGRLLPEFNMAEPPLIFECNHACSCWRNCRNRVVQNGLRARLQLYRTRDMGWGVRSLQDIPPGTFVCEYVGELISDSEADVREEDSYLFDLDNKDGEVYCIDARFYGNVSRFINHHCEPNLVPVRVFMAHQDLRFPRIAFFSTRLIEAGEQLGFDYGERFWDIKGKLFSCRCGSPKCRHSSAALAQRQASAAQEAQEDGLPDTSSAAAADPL

B1: RCC1 (protein, UniProt P18754 2-421, looked up)
Regulator of chromosome …: SPKRIAKRRSPPADAIPKSKKVKVSHRSHSTEPGLVLTLGQGDVGQLGLGENVMERKKPALVSIPEDVVQAEAGGMHTVCLSKSGQVYSFGCNDEGALGRDTSVEGSEMVPGKVELQEKVVQVSAGDSHTAALTDDGRVFLWGSFRDNNGVIGLLEPMKKSMVPVQVQLDVPVVKVASGNDHLVMLTADGDLYTLGCGEQGQLGRVPELFANRGGRQGLERLLVPKCVMLKSRGSRGHVRFQDAFCGAYFTFAISHEGHVYGFGLSNYHQLGTPGTESCFIPQNLTSFKNSTKSWVGFSGGQHHTVCMDSEGKAYSLGRAEYGRLGLGEGAEEKSIPTLISRLPAVSSVACGASVGYAVTKDGRVFAWGMGTNYQLGTGQDEDAWSPVEMMGKQLENRVVLSVSSGGQHTVLLVKDKEQS
B2: SAFB (protein, UniProt Q15424 2-915, looked up)
Scaffold attachment factor B1: AETLSGLGDSGAAGAAALSSASSETGTRRLSDLRVIDLRAELRKRNVDSSGNKSVLMERLKKAIEDEGGNPDEIEITSEGNKKTSKRSSKGRKPEEEGVEDNGLEENSGDGQEDVETSLENLQDIDIMDISVLDEAEIDNGSVADCVEDDDADNLQESLSDSRELVEGEMKELPEQLQEHAIEDKETINNLDTSSSDFTILQEIEEPSLEPENEKILDILGETCKSEPVKEESSELEQPFAQDTSSVGPDRKLAEEEDLFDSAHPEEGDLDLASESTAHAQSSKADSLLAVVKREPAEQPGDGERTDCEPVGLEPAVEQSSAASELAEASSEELAEAPTEAPSPEARDSKEDGRKFDFDACNEVPPAPKESSTSEGADQKMSSPEDDSDTKRLSKEEKGRSSCGRNFWVSGLSSTTRATDLKNLFSKYGKVVGAKVVTNARSPGARCYGFVTMSTAEEATKCINHLHKTELHGKMISVEKAKNEPVGKKTSDKRDSDGKKEKSSNSDRSTNLKRDDKCDRKDDAKKGDDGSGEKSKDQDDQKPGPSERSRATKSGSRGTERTVVMDKSKGVPVISVKTSGSKERASKSQDRKSASREKRSVVSFDKVKEPRKSRDSESHSRVRERSEREQRMQAQWEREERERLEIARERLAFQRQRLERERMERERLERERMHVEHERRREQERIHREREELRRQQELRYEQERRPAVRRPYDLDRRDDAYWPEAKRAALDERYHSDFNRQDRFHDFDHRDRGRYPDHSVDRREGSRSMMGEREGQHYPERHGGPERHGRDSRDGWGGYGSDKRMSEGRGLPPPPRRDWGDHGRREDDRSWQGTADGGMMDRDHKRWQGGERSMSGHSGPGHMMNRGGMSGRGSFAPGGASRGHPIPHGGMQGGFGGQSRGSRPSDARFTRRY
B3: CNN3 (protein, UniProt Q15417 1-329, looked up)
Calponin-3: MTHFNKGPSYGLSAEVKNKIASKYDHQAEEDLRNWIEEVTGMSIGPNFQLGLKDGIILCELINKLQPGSVKKVNESSLNWPQLENIGNFIKAIQAYGMKPHDIFEANDLFENGNMTQVQTTLVALAGLAKTKGFHTTIDIGVKYAEKQTRRFDEGKLKAGQSVIGLQMGTNKCASQAGMTAYGTRRHLYDPKMQTDKPFDQTTISLQMGTNKGASQAGMLAPGTRRDIYDQKLTLQPVDNSTISLQMGTNKVASQKGMSVYGLGRQVYDPKYCAAPTEPVIHNGSQGTGTNGSEISDSDYQAEYPDEYHGEYQDDYPRDYQYSDQGIDY
B4: PPP1CB (protein, UniProt P62140 2-327, looked up)
Serine/threonine-protein …: ADGELNVDSLITRLLEVRGCRPGKIVQMTEAEVRGLCIKSREIFLSQPILLELEAPLKICGDIHGQYTDLLRLFEYGGFPPEANYLFLGDYVDRGKQSLETICLLLAYKIKYPENFFLLRGNHECASINRIYGFYDECKRRFNIKLWKTFTDCFNCLPIAAIVDEKIFCCHGGLSPDLQSMEQIRRIMRPTDVPDTGLLCDLLWSDPDKDVQGWGENDRGVSFTFGADVVSKFLNRHDLDLICRAHQVVEDGYEFFAKRQLVTLFSAPNYCGEFDNAGGMMSVDETLMCSFQILKPSEKKAKYQYGGLNSGRPVTPPRTANPPKKR
B5: SRP9 (protein, UniProt P49458 2-86, looked up)
Signal recognition particle 9 …: PQYQTWEEFSRAAEKLYLADPMKARVVLKYRHSDGNLCVKVTDDLVCLVYKTDQAQDVKKIEKFHSQLMRLMVAKEARNVTMETE

What was measured:
3×MBT domain of L3MBTL1 = experiment: Triple SILAC pull-down, 3xMBT/3xMBTD355N ratio (cytoplasmic, nuclear and chromatin fractions of 293T cells); format: binding, human; conditions: SILAC ratio, pull-down 3xMBT vs 3xMBTD355N; for 3xMBT/D355N UNC Heavy: experiment with UNC0638 in heavy SILAC media; for 3xMBT/D355N UNC Light: experiment with UNC0638 in light SILAC media;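 on all read-outs here: proteins quantified with MaxQuant, requiring at least two unique peptides and quantification in both label directions, normalized to the mean of proteins from a digested loading control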
G9a and GLP = target: T1, G9a and GLP; experiment: Triple SILAC pull-down after UNC0638 treatment of 293T cells, DMSO/UNC0638 ratio of protein captured by 3×MBT; format: cell-based; design: endogenous in cells; host or cells: HEK 293T; conditions: for Relative to UNC0638 UNC Heavy / Relative to UNC0638 UNC Light: SILAC ratio DMSO/UNC0638 of protein pulled down with 3xMBT; for Relative to UNC0638 UNC Heavy: UNC0638 in heavy SILAC media; for Relative to UNC0638 UNC Light: UNC0638 in light SILAC media; for Relative to UNC0638 Average: average of UNC Light and UNC Heavy experiments;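 on all read-outs here: mass spectrometry (Q-Exactive) SILAC quantitation, DMSO/UNC0638 ratio computed after subtracting 3×MBTD355N mutant pull-down background, only proteins with at least twofold 3×MBT over mutant signal considered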
Description: For UNC0638 treatments cells were treated for 24 hours with UNC0638 at 2.5 μM or DMSO vehicle control. One experiment treated cells in light media with UNC0638, the other treated cells in heavy media. Both experiments included cells in medium media treated with DMSO for negative control pull-down with 3×MBTD355N.
UNC0638 treatment experiments used a Q-Exactive mass spectrometer (ThermoFisher Scientific). A 25 cm HPLC column with 3 μm Reliasil (Orochem) was used to separate peptides over a 4 hour gradient from 0 to 75% acetonitrile. Ions were generated using a custom nanospray source flowing at 250 nL/minute. Mass spectrometry settings were 70,000 MS1 resolution, data dependent selection of up to 20 precursor ions per cycle, dynamic exclusion of 30 seconds and isolation window of 2 m/z.
For UNC0638 experiments the treated vs. untreated ratio was determined by subtracting the value from 3×MBTD355N prior to dividing values from the light and heavy channels. Only proteins showing a two-fold signal to background ratio (3×MBT/3×MBTD355N) were evaluated as potential G9a/GLP substrates.

Row | Molecule | 3xMBT/D355N UNC Heavy (3×MBT domain of L3MBTL1) | 3xMBT/D355N UNC Light (3×MBT domain of L3MBTL1) | Relative to UNC0638 UNC Heavy (G9a and GLP) | Relative to UNC0638 UNC Light (G9a and GLP) | Relative to UNC0638 Average (G9a and GLP)
1 | B1 | 2.15 log base 2 | 2.25 log base 2 | 0.18 log base 2 | 0.29 log base 2 | 0.24 log base 2
2 | B2 | 2.38 log base 2 | 2.76 log base 2 | 0.11 log base 2 | 0.35 log base 2 | 0.23 log base 2
3 | B3 | 2.36 log base 2 | 2.35 log base 2 | 0.61 log base 2 | −0.15 log base 2 | 0.23 log base 2
4 | B4 | 2.35 log base 2 | 2.55 log base 2 | 0.28 log base 2 | 0.18 log base 2 | 0.23 log base 2
5 | B5 | 1.88 log base 2 | 1.52 log base 2 | 0.46 log base 2 | 0.01 log base 2 | 0.23 log base 2
